Experimental data published in patent US20170224833A1, “SELF-ASSEMBLING MOLECULES THAT ACCUMULATE IN ACIDIC TUMOR MICROENVIRONMENTS” (OHIO STATE INNOVATION FOUNDATION, priority 2014, published 2017).
Blank lines part the entries; values can stand above or below the molecule they belong to. Residues, ends and D or L forms follow the SMILES beside them. *: point of attachment. Palmitoyl = CCCCCCCCCCCCCCCC(=O)*

Tests used:
[1] = pH titration of peptide amphiphiles (pKa); type: physicochemical; conditions: 10 μM
Procedure: The titration measurements were conducted on 10 μM peptide amphiphile solutions prepared in 150 mM NaCl and 2.2 mM CaCl2 using milli-Q water. The solution was heated at 80° C. for 30 minutes followed by slow cooling at room temperature. The pH of the solution was then adjusted to 4 using HCl. Finally, an Accumet XL15 pH meter (Fisher Scientific) coupled with an Orion Ross Ultra semi-micro electrode (8103BNUWP, Thermo Scientific) was used to track changes in pH of the solution as NaOH solution was added in small increments. pKa values were obtained from the second inflection points of the first derivative plots of the titration data. The first transition corresponds to neutralization of excess HCl. The calculated pKas reflect the average pKa for all four glutamic acids.

[2] = Critical aggregation concentration (CAC), pyrene 1:3 method; type: physicochemical
Procedure: For the CAC measurements, a series of solutions of the PA with concentrations ranging from 10 nM to 300 μM were prepared using serial dilutions in 150 mM NaCl and 2.2 mM CaCl2. The final concentration of pyrene in each solution was fixed to be 1.23 μM. This was followed by pH adjustment of the solutions using careful additions of HCl or NaOH. 70 μL of each solution was transferred to a 96-well plate and the fluorescence emission of pyrene was monitored using a hybrid reader fluorimeter (BioTek Synergy H4) at room temperature. The excitation wavelength was set at 335 nm. The ratio of the intensities of emissions at 376 nm and 392 nm were then plotted as a function of the PA concentration (log scale). The CAC was determined from an abrupt change in the slope of the plot using the least-squares fitting technique.
For CAC measurements, a series of solutions of either pure PA or PA mixture with concentrations ranging from 100-300 nM to 500-700 μM were prepared using serial dilutions in 150 mM NaCl and 2.2 mM CaCl2 (and 1.8 mM 20 kDa PEG in select samples). The final concentration of pyrene in each solution was fixed to be 4.5 μM. This was followed by pH adjustment of the solutions using careful additions of HCl or NaOH. 100 µL of each solution was transferred to a 96-well plate and the fluorescence emission of pyrene was monitored using a hybrid reader fluorimeter (BioTek Synergy H4) at room temperature. The excitation wavelength was set at 335 nm. The ratio of the intensities of emissions at 376 nm and 392 nm were then plotted as a function of the PA concentration (log scale). The CAC was determined from an abrupt change in the slope of the plot using the least-squares fitting technique.
The pyrene 1:3 method was used to determine CAC for the PAs (Aguiar, J., et al. J. Colloid Interface Sci. 2003 258:116-122). For both PA71 and PA68, CAC measurements were performed at various pH values (5-10). Samples of high PA concentration (300-750 μM) were prepared in deionized water containing 150 mM NaCl and 2.2 mM CaCl2. These samples were raised to 9 or greater pH using NaOH and heated at 80° C. for 30 minutes. Samples were then allowed to cool to room temperature and pH was altered to the desired value using dilute NaOH and HCl. Solutions containing only aqueous 150 mM NaCl and 2.2 mM CaCl2 and solutions containing these salts, a 1:1 solution of water and methanol, and 62 μM pyrene were also prepared. Each of these solutions was divided into various portions and adjusted to appropriate pH values. The PA solutions were serially diluted with the corresponding salt solutions with a total of 125 μL at each concentration. 5 μL of the pyrene containing solution as added to each dilution for a final pyrene concentration of 2.4 μM. Each diluted sample was probed for fluorescence with an excitation wavelength of 335 nm. Fluorescence was recorded with particular attention paid to the 376 nm and 392 nm emission peaks. The ratio of these two peaks was plotted versus PA concentration on a log scale. The CAC was determined from an abrupt change in the slope of the plot using the least-squares fitting technique.
Critical aggregation concentration (CAC) measurements were carried out to determine the concentration at which micelles or nanofibers begin to form by using the pyrene 1:3 method, (citation) All samples were basified to a pH of 10, stirred at 90° C. for 30 minutes in an oil bath and cooled to room temperature. HCl and NaOH were then added to set the PA solution specific pH value. PAs with concentrations ranging from 100 μM to 500 μM were serial diluted with 150 mM NaCl and 2.2 mM CaCl2. A pyrene solution was then added to each of the diluted samples, for a final pyrene concentration of 4.5 μM. 100 μL of each serial diluted sample were transferred into a 96-well plate and the fluorescence emission of the pyrene was monitored by a hybrid reader fluorimeter (BioTek Synergy H4) at room temperature with an excitation wavelength of 335 nm. […]

[3] = CD spectroscopy in artificial mouse serum (150 mM NaCl, 2.2 mM CaCl2, 1.8 mM 20 kDa PEG); type: physicochemical; conditions: both pure and artificial mouse serum
Procedure: Measurements were done on a Jasco-815 Circular Dichroism spectrometer using 0.5-1 cm path length quartz cuvettes. 500-10 μM of either pure PA or PA mixtures were prepared in 150 mM NaCl and 2.2 mM CaCl2 (and 1.8 mM 20 kDa PEG in select samples) by dilution from a concentrated PA stock (0.5-1 mM, pH 9). Double de-ionized Milli-Q water was used for preparing all solutions. The solutions were then heated at 80° C. for 30 minutes in a water bath and gradually cooled to room temperature. An Accumet XL15 pH meter (Fisher Scientific) coupled with an Orion Ross Ultra semi-micro electrode (8103BNUWP, Thermo Scientific) was used to adjust the pH of the solution to the desired value followed by collection of the CD spectra. Each trace shown was averaged over 3 accumulations and was baseline subtracted using aqueous solutions containing salts only. All spectra are cut-off below 200 nm due to absorption by NaCl and CaCl2. The same procedure was followed for the salt control samples with 3.0 and 4.0 mM CaCl2.
Finally, a medium that accurately replicated the ionic strength and the crowded environment of pure serum and enabled characterization of the PA self assembly behavior using CD and CAC measurements without interference from protein signals was created. This artificial serum solution contains 1.8 mM of 20 kDa PEG, 150 mM NaCl and 2.2 mM CaCl2. […]

[4] = 150 mM NaCl, 2.2 mM CaCl2; previously found (Ghosh 2012); cited from earlier work
[5] = pH 5, 150 mM NaCl, 2.2 mM CaCl2

glutamic acids in the deprotonated form at the transition [1]: 98.8% | critical aggregation concentration (CAC) ([2]; pH 6.6): 6.0 µM
Molecule: CCCCCCCCCCCCCCCC(=O)N[C@H](C(=O)N[C@@H](C)C(=O)N[C@@H](C)C(=O)N[C@@H](C)C(=O)N[C@@H](CCC(=O)O)C(=O)N[C@@H](CCC(=O)O)C(=O)N[C@@H](CCC(=O)O)C(=O)N[C@@H](CCC(=O)O)C(N)=O)[C@@H](C)CC [PA1] (Palmitoyl-IAAAEEEE-NH2)

CAC, times lower than PA1 ([2]; comparable pH values): 3-5 | CAC [2, 5]: 1.1 µM | CAC ([2]; pH 10, 150 mM NaCl, 2.2 mM CaCl2): 7.5 µM
Molecule: CCCCCCCCCCCCCCCC(=O)N[C@@H](C)C(=O)N[C@H](C(=O)N[C@@H](C)C(=O)N[C@@H](C)C(=O)N[C@@H](CCC(=O)O)C(=O)N[C@@H](CCC(=O)O)C(=O)N[C@@H](CCC(=O)O)C(=O)N[C@@H](CCC(=O)O)C(N)=O)[C@@H](C)CC [PA68] (Palmitoyl-AIAAEEEE-NH2)

Molecule: Palmitoyl-AAAIEEEE-NH2 (SMILES CCCCCCCCCCCCCCCC(=O)N[C@@H](C)C(=O)N[C@@H](C)C(=O)N[C@@H](C)C(=O)N[C@H](C(=O)N[C@@H](CCC(=O)O)C(=O)N[C@@H](CCC(=O)O)C(=O)N[C@@H](CCC(=O)O)C(=O)N[C@@H](CCC(=O)O)C(N)=O)[C@@H](C)CC) [PA70]
aggregation state by pyrene 1:3 method ([2]; all pH and concentration values): in the aggregated state across all pH and concentration values

Molecule: Palmitoyl-AIAAEEEEK(DO3A:Gd)-NH2 (Palmitoyl-AIAAEEEEK(DO3A)-NH2; also: DO3A chelates Gd) [PA71]
CAC (below the detectable limit) ([2]; all pH values tested except pH 10): 200 to 300 nM | CAC [2, 5]: 1.3 µM | CAC, fold lower than PA5 ([2]; pH ~7): > 6

Molecule: Palmitoyl-IAAAEEEEK(DO3A:Gd)-NH2 (Palmitoyl-IAAAEEEEK(DO3A)-NH2; also: DO3A chelates Gd) [PA5]
morphology across pH [3]: remains nanofibers across all measured pH values | pH of concentration independent transition from spherical micelles to nanofibers [4]: 6.0

Molecule: palmitoyl-YYAAEEEEEK(DO3A:Gd)-NH2 (Palmitoyl-YYAAEEEEEK(DO3A)-NH2; also: DO3A chelates Gd) [PA74]
CAC higher than PA75 ([2]; pH 6): ~500% | CAC ([2]; pH 7.06): 9.3 µM | CAC higher than PA75 ([2]; pH 8): 5% | CAC ([2]; pH 9.02): 21.6 µM
